Test results taken from the supplement of paper PMC9732359.
± gives the uncertainty stated by the source.

Test: protein stability index of a GFP-peptide fusion (yeast GPS) (PSI 1-4); higher = more stable; sorted into four equal gates, so the index is relative within each strain
Summary of the method: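 Each library plasmid carries Cherry plus GFP with a tiled 17-residue yeast protein peptide fused downstream, and the pooled library was carried in yeast. Mid-log cultures in leucine-free medium were sorted into four equal gates by GFP/Cherry ratio. Reads from Illumina sequencing of PCR-amplified plasmids from each gate were assigned to strains by barcodes. Per peptide, the protein stability index was computed as the summed products of gate read frequency and gate number.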

Sequence	protein stability index (doa10∆)	protein stability index (pdr5∆)	protein stability index (san1∆)	protein stability index (ubr1∆)
NSMDMVDGMAKVPIGLI [RGR1]	3.4 ± 0.12	3.37 ± 0.072	2.99 ± 0.15	3.23 ± 0.073
NSNDSVFVGSGKGTGKT [BRR2]	3.36 ± 0.14	3.27 ± 0.16	3.32 ± 0.1	3.33 ± 0.11
NSNGIAMASLYLTGGQQ [SMD1]	2.44 ± 0.073	2.66 ± 0.06	2.63 ± 0.063	2.59 ± 0.059
NSPSKGNSERPSAVAGF [YIL149C/MLP2]	3.2 ± 0.087	3.45 ± 0.1	3.1 ± 0.089	3.16 ± 0.11
NSPSSALRALQENGTIF [YDL088C/ASM4]	2.13 ± 0.062	2.05 ± 0.053	1.53 ± 0.069	2.01 ± 0.039
NSSSSTPNTNSNSTPNA [SWI1]	2.96 ± 0.087	2.98 ± 0.09	3.12 ± 0.069	3.21 ± 0.059
NSTDGAKITEIGSTSKR [YIL149C/MLP2]	3.02 ± 0.12	2.91 ± 0.086	3.01 ± 0.074	3.18 ± 0.062
NTHYHADYRLILTGTPL [SNF2]	1.31 ± 0.11	1.71 ± 0.097	1.39 ± 0.12	1.75 ± 0.076
NTKEIAVDLEHHDYRSY [RRP6]	2.93 ± 0.06	3.07 ± 0.048	3.15 ± 0.056	3.054 ± 0.03
NTLILRGPRNSREAVRH [RPL18A]	2.53 ± 0.25	2.89 ± 0.18		
NTLIPESSLTISLYFND [ECM29]	1.92 ± 0.046	2.19 ± 0.052	1.99 ± 0.061	2.42 ± 0.043
NTLLVTGPFKVNGVPLR [RPL6B]	2.74 ± 0.12	2.66 ± 0.082	2.63 ± 0.081	2.74 ± 0.045
NTNELKEVSSFLMGIFN [MTR3]	2.93 ± 0.067	3.06 ± 0.061	2.92 ± 0.061	3.1 ± 0.046
NTNTENENRNTGAGVDV [SNF11]	2.9 ± 0.062	2.98 ± 0.045	2.66 ± 0.044	2.88 ± 0.044
NTQDLLLLLSLFKKITN [YML103C/NUP188]	1.26 ± 0.038	1.3 ± 0.033	1.58 ± 0.068	1.55 ± 0.036
NVFGTLQRHSGISSTLV [YLR018C/POM34]	2.03 ± 0.09	2.01 ± 0.096	1.77 ± 0.23	3.25 ± 0.27
NVNMTVNTMGTGGQTID [MED6]	3.23 ± 0.3	3.44 ± 0.12	3.06 ± 0.14	3.37 ± 0.29
NVNNNNIGQQQVKKPRK [SWI1]	3.42 ± 0.12	3.37 ± 0.16	3.29 ± 0.084	3.13 ± 0.21
NVPVHVSPAFRVQVGDI [RPS11A]	2.69 ± 0.075	3.15 ± 0.08	2.68 ± 0.079	2.71 ± 0.06
NVQLRDVIATEPQGAVT [SMD3]	2.96 ± 0.069	2.98 ± 0.1	2.39 ± 0.09	2.67 ± 0.071
NVRSVIRSSRSRGIVIG [RPP1]	3 ± 0.076	3.1 ± 0.078	3.15 ± 0.16	3.2 ± 0.072
NVVEIWVFSYLRWFELK [SIR3]	1.31 ± 0.088	1.38 ± 0.066	2.17 ± 0.16	2.21 ± 0.063
NVVGKLISIISSVIQNY [YML103C/NUP188]	1.79 ± 0.073	1.44 ± 0.078	1.36 ± 0.13	1.51 ± 0.089
NWAKFTATASLGVIHKG [RPN2]	1.81 ± 0.06	1.81 ± 0.053	1.91 ± 0.069	2 ± 0.061
NWRRLSGRNIHLAVVCV [SSN2]	2.12 ± 0.085	1.58 ± 0.044	1.55 ± 0.078	2.86 ± 0.045
NYGMIAINPGRVAASFS [FAS1]	1.72 ± 0.1	1.89 ± 0.09	1.46 ± 0.076	1.81 ± 0.06
NYILNFKQSNSETFLQF [CDC53]	2.57 ± 0.13	1.43 ± 0.1	1.77 ± 0.17	2.12 ± 0.11

Sequence	protein stability index (doa10∆)	protein stability index (pdr5∆)	protein stability index (san1∆)	protein stability index (ubr1∆)
NYLNDMHDSNLQNNSDS [SKP1]	2.48 ± 0.12	2.59 ± 0.063	2.3 ± 0.08	2.7 ± 0.054
NYSSESYRNAFTNVLTK [YJL039C/NUP192]	2.56 ± 0.047	2.38 ± 0.067	2.31 ± 0.067	2.48 ± 0.038
NYTQNIDNLESYAGIST [SIR2]	2.92 ± 0.059	2.96 ± 0.09	2.87 ± 0.071	3.01 ± 0.044
PADSTYGAYNTQIANAG [PRE4]	1.8 ± 0.097	2.03 ± 0.067	2.08 ± 0.15	1.69 ± 0.049
PAEVGRAIRSEKYGKQV [BRR2]	3.27 ± 0.22	3.15 ± 0.073		
PAFSFGAKPEEKKDDNS [YJL041W/NSP1]	3.27 ± 0.16	3.26 ± 0.13	2.98 ± 0.24	3.29 ± 0.13
PAHTKYMLIEEAASSNK [ITC1]	3.05 ± 0.12	2.93 ± 0.11	3.02 ± 0.1	3.01 ± 0.095
PAHTVIIKGTDVYSPEK [BRR2]	3.02 ± 0.055	3.19 ± 0.077	2.54 ± 0.072	2.68 ± 0.055
PALVGKLRGDLREAPAD [SNF6]	3.19 ± 0.21	3.12 ± 0.19	2.24 ± 0.19	2.5 ± 0.17
PANAEPQAVTITSIMDD [ITC1]	2.39 ± 0.11	2.83 ± 0.09	2.49 ± 0.069	3.02 ± 0.11
PAQKDSSVVSEPKKPSF [YOR098C/NUP1]	2.94 ± 0.061	2.71 ± 0.05	2.3 ± 0.076	2.89 ± 0.042
PDGTLIASAGKDGEIML [ASC1]	3.06 ± 0.073	3.26 ± 0.091	3.29 ± 0.045	2.8 ± 0.045
PDRHVIFLAERRILPKP [RPS7B]	2.81 ± 0.18	2.75 ± 0.14	2.99 ± 0.096	
PDVKSLVQLSTMETKTL [SIR4]	2.92 ± 0.071	2.83 ± 0.073	2.81 ± 0.052	2.98 ± 0.063
PEPSHIDQVMMSVSDND [RET1]	2.43 ± 0.047	2.06 ± 0.045	2.43 ± 0.05	2.48 ± 0.042
PFDQNLDSNNNNSNSNN [SWI1]	2.65 ± 0.033	2.74 ± 0.037	2.839 ± 0.026	2.74 ± 0.027
PFFSSNTSSLQSFQNPF [YIL149C/MLP2]	2.93 ± 0.058	2.25 ± 0.055	2.69 ± 0.05	2.81 ± 0.033
PFGAKSTKSNKAKNPLT [RPL8B]	3.38 ± 0.094	3.1 ± 0.067	2.98 ± 0.061	2.93 ± 0.091
PFGAKSTKSNKTRNPLT [RPL8A]	2.73 ± 0.072	2.99 ± 0.062	2.88 ± 0.057	2.8 ± 0.056
PFGVSTIFGGVDKNGAH [PRE10]	3.06 ± 0.076	2.98 ± 0.069	2.73 ± 0.12	2.97 ± 0.049
PFHSHLLVPASDLINKD [FAS1]	1.83 ± 0.03	2.15 ± 0.035	2.13 ± 0.048	1.96 ± 0.032
PFLHLRKKTPAGDWKYD [FAS2]	3.2 ± 0.29	3.32 ± 0.2	2.54 ± 0.24	3.08 ± 0.21
PFLLMELHKKLVEAAKL [YDL116W/NUP84]	1.41 ± 0.11	1.13 ± 0.093		1.25 ± 0.13
PFLNETKPGVYYVPYSK [RPC82]	3.09 ± 0.12	2.97 ± 0.13	3.03 ± 0.064	3.36 ± 0.091
PFNKPNIETGENHNGQS [SWI3]	3.3 ± 0.14	3.16 ± 0.12	3.22 ± 0.13	2.78 ± 0.13
PFTDITVEGISKLLREH [RPB2]	2.27 ± 0.076	2.4 ± 0.079	2.51 ± 0.077	2.42 ± 0.067
PGDIVRAQVLSLGDGTN [CSL4]	3.62 ± 0.24	3.26 ± 0.12	3.14 ± 0.12	3.29 ± 0.12
